Test results: publication PMC5798300

Molecular target: (2S)-methylsuccinyl-CoA dehydrogenase from Paracoccus denitrificans, wild type, as used for analytical size-exclusion chromatography (Paracoccus denitrificans)
Experiment: SEC; analytical; Superdex 200 Increase 10/300 GL, 100 µl at 2 mg/ml, 0.7 ml/min, 20 mM Tris-HCl pH 7.9, 200 mM NaCl; enzymes incubated with 500 µM FAD for 1 h on ice beforehand; calibrated with a gel filtration standard

stoichiometry N: 2
Substance: (2S)-methylsuccinyl-CoA dehydrogenase from Paracoccus denitrificans, wild type, as used for analytical size-exclusion chromatography (enzyme)
